Data set [1] deals with MS2 coat protein. Kind of data set: apparent KD of MS2 coat protein, switch ON state; designed switch direction (-1 OFF switch, 1 ON switch): -1; higher = weaker reporter binding. Particulars: FMN input: 0 or 200 uM; Eterna round: R93 (includes R88 designs). The essentials: (§1)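 Designed RNA switches were transcribed on-chip from Illumina sequencing clusters. SNAP-549-labelled MS2 coat protein was titrated onto them in twofold steps from 0.7 or 1.5 nM to 3 µM in 100 mM Tris-HCl pH 7.5, 80 mM KCl, 4 mM MgCl2, either without or with constant ligand. Apparent KD reflects the per-design median of normalised cluster binding-curve fits.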

For data set [2], the system named is MS2 coat protein. Kind of data set: apparent KD of MS2 coat protein, switch OFF state (with FMN for OFF switches, without FMN for ON switches); designed switch direction (-1 OFF switch, 1 ON switch): -1; higher = weaker reporter binding. Particulars: FMN input: 0 or 200 uM; Eterna round: R93 (includes R88 designs). The essentials: as §1

Turning to “AAAAAGUGAGGAUAUACGCUGAAGAGUAGACACAACCAGGCGUAGAAGGCACAUGAGGAUCACCCAUGUCCAAA [Ex4 Malc#10]”, the results for the “apparent KD of MS2 coat protein” value in the data set with MS2 coat protein [1] and in the data set on MS2 coat protein [2] were 21.2 nM and 41.2 nM, respectively.
Regarding “AAAAAGUGAGGAUAUAGCAAAGGUCACGAAAGUGACAAAGGCUAGAAGGCACAUGAGGAUCACCCAUGUCCAAA [Fiskers Exclusion 4 D2 63% 2]”, the results for the “apparent KD of MS2 coat protein” value in the data set with MS2 coat protein [1] and in the data set on MS2 coat protein [2] were 24.7 nM and 55.6 nM, respectively.
The corresponding values for “AAAAAGUGAGGAUAUAUAUGAAACAAAAAGAAAAAAAAAAAACAUGAGGAUCACCCAUGUAGAAGGCGCAAAAA ['Exclusion 2' Lab]” are 27.1 nM and 21.5 nM.
The corresponding values for “AAAAAGUGAGGAUAUGCGAAGGCGUCUGAUAGACGAGGCUAGCAGAAGGCACAUGAGGAUCACCCAUGUGGGAG [Mat - Exclusion 4 - Eli mod - D93]” are 71.5 nM and 148 nM.
In the same order, the values of “AAAAAUCGAGGAUAUACAUGAGGAUCACCCAUGUCAGAAAAUGACUACACAAAAGAAAGUAGAAGGCGAUAAAA [Ex 3 May 18]” are 29.4 nM and 30.3 nM.
In the case of “AAAAAUGGAGGAUAUACAUGAGGAUCACCCAUGUGUAACUAAACAAAACACAAAAAAAGUAGAAGGCCAAAAAA [Gilly Gone Silly 6 - Jieux - Exclusion 3]”, the “apparent KD of MS2 coat protein” value with MS2 coat protein [1] is 14.5 nM; in the data set with MS2 coat protein [2] it was 17.1 nM.
The corresponding values for “AAAAAUGGAGGAUAUACAUGAGGAUCACCCAUGUGUAACUAUACUAAGCACACCUCACGUAGAAGGCCAAAAAA [Gilly Gone Silly 12 - Jieux - Exclusion 3]” are 105 nM and 321 nM.
On to “AAAAAUGGAGGAUAUACAUGAGGAUCACCCAUGUGUGGCCAUACUAUGUGGGCGUCAGGUAGAAGGCCAAAAAA [Gilly Gone Silly 24 - Jieux - Exclusion 3]”, for which the entries for the “apparent KD of MS2 coat protein” value in the data set with MS2 coat protein [1] and in the data set on MS2 coat protein [2] were 22.3 nM and 56 nM, respectively.
The corresponding values for “AAAAAUGGAGGAUAUACGAACAUGUCAAAAGACGUGAAGGGACAUGAGGAUCACCCAUGUAGAAGGCUAAAAAA [JL Stem Breaker 3]” are 87.1 nM and 40.3 nM.
For the sequence “AAAACGGCAGGAUAUACAGAAGAGAUCACGAAAAAAAAAAAACAUGAGGAUCACCCAUGUAGAAGGGCCAAAAA [Ex2 Malc#4]”, the “apparent KD of MS2 coat protein” value is 117 nM in the data set with MS2 coat protein [1] and 66.3 nM in the data set on MS2 coat protein [2].
The corresponding values for “AAAACGGUAGGAUAUACAAUUGAGAACUAGAUCGAAAAAAAACAUGAGGAUCACCCAUGUAGAAGGGCCAAAAA [Ex2 Malc#10]” are 38.2 nM and 23.6 nM.
The corresponding values for “AAAAGGAUAGGAUAUACAUGAGGAUCACCCAUGUGAAAAAAUAAAAAAAAAAAAAAAAGUAGAAGGGUCAAAAA [LROPPY Exclusion 3 - v05_deltaG=3.6]” are 40.2 nM and 53.7 nM.
The corresponding values for “AAAAGGUGAGGAUAUUCGAAAAUAAAAUAAAAUAAAAUAAAGAAGAAGGCACAUGAGGAUCACCCAUGUAAUAA [LROPPY Exclusion 4 - v02_deltaG=2.94 break up the As]” are 25.9 nM and 24.9 nM.
For the sequence “AAAAUACGAGGAUAUACAUGAGGAUCACCCAUGUCAAAAAAUGACUACACAAAAGAAAGUAGAAGGCGUAAAAA [Ex 3 May 16]”, the “apparent KD of MS2 coat protein” value stood at 25.3 nM with MS2 coat protein [1] and 30.4 nM in the data set with MS2 coat protein [2].
The corresponding values for “AAAAUGUGAGGAUAUCCGAAGGCGUCUGAUAGACGAGGCUAGGAGAAGGCACAUGAGGAUCACCCAUGUAAAAA [Banishment 11 - Jieux - Exclusion 4]” are 78.8 nM and 137 nM.
In the same order, the values of “AAAAUGUUAGGAUAUGUGAAGGCGUCUGAUAGACGAGGCCUGCAGAAGGGACAUGAGGAUCACCCAUGUAAAAA [Mod 1 of Nando's Round 1 Power Srip]” are 53.9 nM and 24.7 nM.
In the same order, the values of “AAACAACAUGAGGAUCACCCAUGUUAGGAUAUGAACGAAAAUAAAUAAAAAUAAAAGUUCAGAAGGGACAAAAA [66%, Wbt, 20]” are 23 nM and 28.2 nM.
For “AAAGAUACAGGAUAUACAUGAGGAUCACCCAUGUGGAAUCUAAAAUGGGAAAAAGAAAGUAGAAGGGUAUAAAA [Ex 3 May 39]”, the “apparent KD of MS2 coat protein” value with MS2 coat protein [1] was found to be 34 nM; in the data set on MS2 coat protein [2], 63.5 nM.
The corresponding values for “AAAGGACGAGGAUAUACAUGAGGAUCACCCAUGUAAAAAACGUAAUAAAAGAACUUAUGUAGAAGGCGUCCAAA [69%, Moding Meechl, 7]” are 60.9 nM and 221 nM.
Consider “AAAGGUACAGGAUAUGCGUGGAAAAAGUGUAUUCAAAAAAAACAUGAGGAUCACCCAUGUAGAAGGGUACCAAA [MS2 Riboswitches On Chip Exclusion 2 wbt1]”, for which the “apparent KD of MS2 coat protein” value turned out to be 69.7 nM in the data set with MS2 coat protein [1] and 253 nM in the data set on MS2 coat protein [2].
In the same order, the values of “AAAGUACAUGAGGAUCACCCAUGUCAGGAUAUCGUGGCGGGAAAAACCGGGAAACGCACGAGAAGGGACAAAAA [EX1 Malc#18 Mod 13 - Jieux - Exclusion 1]” are 36.2 nM and 42 nM.
As for “AAAUAGACAGGAUAUGCAUGAAAAUUAAAAAAAAAAAAAAAACAUGAGGAUCACCCAUGUAGAAGGGUCAAAAA [Exclusion 2 - Omei 1]”, the “apparent KD of MS2 coat protein” value turned out to be 66.6 nM with MS2 coat protein [1] and 75.8 nM in the data set with MS2 coat protein [2].
The corresponding values for “AAAUAGCAAGGAUAUACAUGAGGAUCACCCAUGUGAACCAGGUAUGGAAUAGAAUAGAGUAGAAGGUGCAAAUA [Mod 3 of Ex 3 Tesla 8 - Jieux - Exclusion 3]” are 30.2 nM and 37.8 nM.
The corresponding values for “AAAUAGUUAGGAUAUACAUGAGGAUCACCCAUGUGGACUUAUGGAGAAUAGUUUAAUGGUAGAAGGGACUAAAA [EX2 Malc#25]” are 52.8 nM and 36.5 nM.
In the same order, the values of “AACAAACAUGAGGAUCACCCAUGUGAGGAUAUCGAAACAACAAACAACAAACAACAAACGAGAAGGCGCAACAA [e1-2]” are 18.8 nM and 17.3 nM.
In the case of “AACAAGACAGGAUAUACAUGAGGAUCACCCAUGUCACAAUAAAGCAGCGCAACACAAAGUAGAAGGGUCAUGGA [Ruby 10]”, the figures for the “apparent KD of MS2 coat protein” value in the data set with MS2 coat protein [1] and with MS2 coat protein [2] were 73.8 nM and 59.2 nM, respectively.
As to “AACAAGACAGGAUAUACAUGAGGAUCACCCAUGUCACAAUAAAGCAGCGUAACACAAAGUAGAAGGGUCAUGGA [Ruby 9]”, the “apparent KD of MS2 coat protein” value with MS2 coat protein [1] was 83.3 nM; in the data set with MS2 coat protein [2], 71.5 nM.
“AACAAGUCAGGAUAUGCGAACAGAAAAUAAGCUACACAAAAGCAGAAGGGACAUGAGGAUCACCCAUGUAAAUA [JR_Exc004_Sub501]”: the “apparent KD of MS2 coat protein” value in the data set on MS2 coat protein [1] came out at 49.9 nM; in the data set on MS2 coat protein [2] it was 29.8 nM.
The corresponding values for “AACACACAUGAGGAUCACCCAUGUAAGGAUAUGCAAGCAAGAAGAAAGAACAGAAAAAGCAGAAGGUACACACA [Amethyst 74]” are 28.4 nM and 24.3 nM.
With “AACAGACAUGAGGAUCACCCAUGUAAGGAUAUCCAAAACGAUAAAACAAGAAUGACAGGGAGAAGGUACAGCAA [JR_Exc001_Sub007]”, the “apparent KD of MS2 coat protein” value stood at 53.6 nM with MS2 coat protein [1] and 49 nM in the data set with MS2 coat protein [2].
The corresponding values for “AACAGGACAGGAUAUACAUGAGGAUCACCCAUGUGAGAAUUUAGCAGCGUACCACACAGUAGAAGGGUCAUGGA [Ruby 23]” are 40.8 nM and 48.6 nM.
Consider “AACAGGUCAGGAUAUGUGGAAAAAAUAAAAAAAAUAAAAACACAGAAGGGACAUGAGGAUCACCCAUGUCAACA [May 24]”, for which the “apparent KD of MS2 coat protein” value in the data set on MS2 coat protein [1] is 30 nM; in the data set on MS2 coat protein [2], 25.3 nM.
In the same order, the values of “AACAGUACAGGAUAUACAUGAGGAUCACCCAUGUGAAAAUUAAGUGGCGUACCACAAAGUAGAAGGGUACUGGA [Moding Maslow revisited (73) 3]” are 29.4 nM and 86.4 nM.
“AACAGUACAGGAUAUACAUGAGGAUCACCCAUGUGAAGAUUAAGUGGUGUACCACAAAGUAGAAGGGUACUGGA [Ruby 90]”: the “apparent KD of MS2 coat protein” value with MS2 coat protein [1] worked out at 54.9 nM; in the data set with MS2 coat protein [2], 77.9 nM.
“AACAGUACAGGAUAUACAUGAGGAUCACCCAUGUGAGAAACCAAUGGCGUACCAUAAAGUAGAAGGGUACUGGA [Moding Maslow Revisited (73) 31]”: the results for the “apparent KD of MS2 coat protein” value in the data set with MS2 coat protein [1] and with MS2 coat protein [2] were 62.3 nM and 158 nM, respectively.
Consider “AACAUACAUGAGGAUCACCCAUGUUAGGAUAUGCCGGGUUAGAGCCAACUAAAAAACCGUAGAAGGGACGAAAA [Bilbo Confounded 10 - Jieux - Exclusion 1]”, for which the “apparent KD of MS2 coat protein” value in the data set with MS2 coat protein [1] was determined as 30.7 nM; in the data set on MS2 coat protein [2], 28.2 nM.
The corresponding values for “AACAUGUCAGGAUAUUUAAGAAAAGAAAAGAAAGAAAAGAAAAAGAAGGGACAUGAGGAUCACCCAUGUAAGAA [EteRNA is fun!]” are 117 nM and 56.8 nM.
In the same order, the values of “AACAUGUGAGGAUAUAAAAGAAAAGAAAAGAAAGAAAAGAAUUAGAAGGCACAUGAGGAUCACCCAUGUAAGAA [EteRNA is fun!]” are 28.2 nM and 31.9 nM.
Consider “AACUAACAUGAGGAUCACCCAUGUCAGGAUAUGCAUCGAUCGAUCGAUCGAUCGAUCAGCAGAAGGGACAAAAA [Amethyst 92]”, for which the “apparent KD of MS2 coat protein” value in the data set with MS2 coat protein [1] was determined as 22.3 nM; with MS2 coat protein [2], 37 nM.

The values above are taken from the supplement of paper PMC9170038.
